Results as given in the DeepSol protein solubility set.

Assay: soluble on expression in E. coli; label from the status in PepcDB or PDB records

| Sequence | soluble on expression in E. coli |
| --- | --- |
| MSLQRKVFPKCQWVGVSEMKGIRPTQEDAVICYPFAPNGIHIFSVLDGHGGSKTSNFAACDLFNNLSKLEKVDENTLSGSVSATLKSLKAQHFNDGSTMALAVITPNRHIFSCHLGDSRTIVVRRDGSISHFTKDHKPDEKSEVKRVLSQHGFILKHRVMGLLAVSSSLGDFEVVGIGHQPVIREWVIDESDKWLVICCDGVFDVLTNEEVGKICQNATSASALAYDIKNIAFELLSQDNISCIAVDLENMAFSNEGHHHHHH | soluble |
| SKNPHLPQPVRVTVGPNAPPVFGMFYPDRYMVGVDCILVDGMFVSRSRFEKLGGSLMAKWYRSIRVVDTAEPLGAWLERHNLPVFTGKARQRRQRGAPSTN | soluble |
| MFHCKGLYMSDQNDKLKNLKTSSMDRRLSIAKASLLAGTRWATASATSMFSSEAEKEKKRKKAMTEQANYLVSEIGKLKGSIVKIGQMMALYGEHFLPEEITQALNTLNNQTVALAWPAIKAHLQEQLGSKLDDLIIDHEPIGTASLAQVHRATRKSDGLELVLKIQYPGVAEAIDSDMSLFKNMLKLTRMVPQTREFDQWFDEVREMMHREVSYDIEAATTRRFAERLKTDPRYAVPQIIDAYCTTKILCMTFERGVPINSPVMLSLPQERRNKLGEASLEIAVREIFEWGEMQTDPNFGNYLVRLGNGTDIQDKIVLLDFGAIRQFDEHLLSVARNLIRAGYNHSNEEMVRAMTGYSFFDSIPESIKPDMAKVFLLATEAFSCPENNPDMPTGLMDEDNRYDWKKSQLHSRVMQQASKSMASRYFSVPPKEFMFISRKFIGAYTFMTVIEAKTNVRRMISHFVKLEHHHHHH | not soluble |
| LRSRRKPSSRIGRRPSTTQDRISTVGIELFTEQGFDATSVDEVAEASGIARRTLFRYFPSKNAIPWGDFDAHLAEMRAQLAAQPDDIPIVDGLTAALLQFNAFPASEEINHRKRMGLILRVPALQAYSVVMYEGWRNVIAEYVASRLGTSPTDHVPRTVGYLLLGVAMSAYEQWLDDDSLELNELLASGMQSLYDGLSSLGEPDTRT | soluble |
| GMREMQIMSQPEQSRLDLFIDRMVSQRACLEHAIAQTAGLSGPVYELGLGNGRTYHHLRQHVQGREIYVFERAVASHPDSTPPEAQLILGDIRETLPATLERFGATASLVHADLGGHNREKNDRFARLISPLIEPHLAQGGLMVSSDRMYFEGLEELPLPPGAVVGRCFIYRRG | soluble |
| MFIKAERLLIRKFEFKDWEAVHEYTSDSDVMKYIPEGVFTEEDTRNFVNKNMGENAKNFPVILIGENILVGHIVFHKYFGEHTYEIGWVFNPKYFNKGYASEAAQATLKYGFKEMKLHRIIATCQPENTPSYRVMEKIGMRREGYFKKCIPHGNEWWDEYYYAILEEE | soluble |
| SNAMSRAKKWVQYFLSHRHVTMELIHKIDEAHYDYKPTPTSMTAKQLATHMLFSFYNFANTAKHGDPSLFRQKIEEPETNLAKLAETYTEKTRQLIESMSDDDFDRTLDLTAIFGTQMSTAQFLQLAMDHEIHHKGQLFVYVRGMGHTDLPLFVKRG | soluble |
| MGSDKIHHHHHHMSLKELLKDRLSEEELKLVRRSFEIIGDVVIIEIPDEIMHHSRDIVEAILKRHKHVKTVLRKVGEVDGVYRVARYEPIYGEKTETVVREHGCRFLVDPTKAYYSVKLSGERERIARLVGEGERVLVMFAGVGPYPIVIAKLARPREVVGVELNPHAVEYFRQNVRLNKVEGVVKVIEGDVEEVVPQLSGQFDRVVMPAPYSAENFIHLLRGKVRRGGFVHYYTFDSQNEEKILPEKVRRKFEDEGLEVEVVKMRRCGNFAPYVNRYVLDLRVL | not soluble |
| MSLEASLVKLSEQELTSLNYAFQQMRKPLQTINYDYAVWDRTYSYMKSNSASAKRYYEKHEYPDDTFKSLKVDGVFIFNRTNQPVFSKGFNHRNDIPLVFELTDFKQHPQNIALSPQTKQAHPPASKPLDSPDDVPSTHGVIATRYGPAIYSSTSILKSDRSGSQLGYLVFIRLIDEWFIAELSQYTAAGVEIAMADAADAQLARLGANTKLNKVTATSERLITNVDGKPLLKLVLYHTNEGHHHHHH | not soluble |
| SESPWIAEDTSQIQTKLLEFAKSPEVFDWMVKIRRKIHENPELGYEELETSKLIRSELELIGIKYRYPVAITGVIGYIGTGEPPFVALRADMDALPIQEGVEWEHKSKIAGKMHACGHDGHVTMLLGAAKILHEHRHHLQGTVVLIFQPAEEGLSGAKKMREEGALKNVEAIFGIHLSARIPFGKAASRAGSFLAGAGVFEAVITGKGGHAAIPQHTIDPVVAASSIVLSLQQLVSRETDPLDSKVVTVSKVNGGNAFNVIPDSITIGGTLRAFTGFTQLQQRVKEVITKQAAVHRCNASVNLTPNGREPMPPTVNNKDLYKQFKKVVRDLLGQEAFVEAAPVMGSEDFSYFAETIPGHFSLLGMQDETNGYASSHSPLYRINEDVLPYGAAIHASMAVQYLKEKASKGSVSGFHEEL | soluble |
| MKVDLNSDLGESFGRYKLGLDDEVMKYITSANVACGWHAGDPLVMRKTVRLAKKNNVQVGAHPGYPDLMGFGRRYMKLTPEEARNYILYQIGALYAFVKAEGLELQHVKPHGALYNAMVKEEDLARAVIEGILDFDKRLIVVTLAGSRVVEIAREMGARVAQEGFADRAYNPDGTLVPRSRPGAVIEDKEEIAERVISMVKDGGIRAINGEWIELEVDTICVHGDNPKAVEITAYIRRRLEEEGVKVLPMGDFIK | soluble |
| AHHHHHHGSYRIKDEWGEFLVRLARRAIEEYLRTGREIEPPKDIPPELWEKMGVFVTLNRHNVPPQAALRGCIGFPLPIYPLVKATIKAAIYAAVDDPRFPPVKLEEMNNIVVEVSVLTPPELIEGPPEERPKKIKVGRDGLIVEKGIYTGLLLPQVAVEWGWDEEEFLAETCWKAGLPPDCWLDEDTKVYKFTAEIFEEEYPRGPVKRKPLIPQSQD | soluble |
| MNRGSLYITATPIGNREDITLRAIDTLRSVDLIAAEDTRHSKKLLEHYGIKTPLLSLHEHNEAARATLLCEKLKQGLNVALISDAGTPLISDPGYRLVNAVREAGIEVVPIPGACAAIAALVASGLPTDRFIFEGFIPSKGEVRRKKLEDLKNQRRTIIFYESVHRIVNLIDLLNEIFGTERRATIARELTKKFETIHTATLAELKNWINENPVQEKGEFVVIVAGQTEKLTEINEEHQQLLTLLLSELSLKQAVSLATKISGLPRKKLYALALTIQQHLPHHRY | soluble |
| SDVYNNTAFFEQYMKRRYRENSPNESIEKPVFFQLIGHVQGKQILDLGCGDAKFGAELLEKGCYSYTGIEGSELMYEKAKKQLENKNGSVHFLNLKDYTYPSSTFDLVTSRLALHYIEHLDTIFQNVFQTLKTNGTFTFSVQHPVITSSFESLQTSGKRTIWLVDDYFKLGKRVEPWIDQEVIKYHRTTEEYFTLLQQAGFTITSLKEATPNPTYFQDEEEYKRRLRIPLFLLFSCTK | soluble |
| MGSDKIHHHHHHMKYGIVGYSGRMGQEIQKVFSEKGHELVLKVDVNGVEELDSPDVVIDFSSPEALPKTVDLCKKYRAGLVLGTTALKEEHLQMLRELSKEVPVVQAYNFSIGINVLKRFLSELVKVLEDWDVEIVETHHRFKKDAPSGTAILLESALGKSVPIHSLRVGGVPGDHVVVFGNIGETIEIKHRAISRTVFAIGALKAAEFLVGKDPGMYSFEEVIFGGE | soluble |
| KGDDTYYIIFTSGTTGKPKGVQISHDNLLSFTNWMINAEAFATPHRPQMLAQPPYSFDLSVMYWAPTLALGGTLFALPKEITADFKQLFTTINQLPIGVWTSTPSFVDMAMLSDDFNAQQLPHLTHFYFDGEELTVKTAKKLRQRFPQARIVNAYGPTEATVALSALAVTDKML | not soluble |
| MGSDKIHHHHHHMTDAPGPLEPLGSTGGPILDRPAFERLTTTHRRALKLHCYRMMGSLHEADDLVQETFLKAWRGRAQFDGRGSPRGWLYTIATNACLNAIKARSSAHRILEEPARPPSEGRAAAGLAAELSWLEPYPDAELPDLIDGEPGPDARYETSEAVRLAFVAAIQLLPPRQRASLLLCDVLGWSALETAQLLGGSTASVNSALQRARATLGERYPQGRPQQRSQPNPEEGVLLERYISAWQAANLDGFIALLREDATYHMPPWRDWYRGRPAIHGFFKTVWGNFAGYRAVATRANGQPAVAIYARRHQEPEWRAQSLHVIEPAYGAIASLTVYVAPLGPGLFAAFGLPPVWSGPQA | not soluble |
| MVKKMVIAVRKDLDMGKGKIAAQVAHAAVTCAIRSMKINRDVFNEWYDEGQRKIVVKVNDLDEIMEIKRMADSMGIVNEIVQDRGYTQVEPGTITCIGLGPDEEEKLDKITGKYKLL | soluble |
| MRPARALIDLQALRHNYQLAREVTGAKALAVIKADAYGHGAVRCAQALEAEADGFAVACIEEALELRAAGIRAPILLLEGFFEADELPLIVEHDFWCVVHSLWQLDAIEQARLAKPIHVWLKLDSGMHRVGLHPNDYKAAYQRLQASANVAKIVLMSHFARADELDCTRSVEQVAVFLGARADLTAEISLRNSPAVLGWPRVPSDWVRPGLMLYGSSPFDEPQATASRLQPVMTLESKVICVRELPAGEPVGYGARFITPKPMRIGVVAMGYADGYPRQAPTGTPVFVDGVRSQLLGRVSMDMLCIDLTDVPQAGLGSTVELWGKNILASEVATAADTIPYQIFCNLKRVPRLYSGN | soluble |
| MSEQITFATSDFASNPEPRCPCILLLDVSGSMNGRPINELNAGLVTFRDELLADPLALKRVELGIVTFGPVHVEQPFTSAANFFPPILFAQGDTPMGAAITKALDMVEERKREYRANGISYYRPWIFLITDGAPTDEWQAAANKVFRGEEDKRFAFFSIGVQGADMKTLAQISVRQPLPLQGLQFRELFSWLSSSLRSVSRSTPGTEVVLEAPKGWTSV | soluble |
| VPLPVPDFTASPMTISVGESVQFQDQTTNNPTNWEWTFEGGQPAMSTEQNPLVSYSHPGQYDVTLKVWNASGSNTITKEKFITVNAVMPVAEFVGTPTEIEEGQTVSFQNQSTNATNYVWIFDGGTPATSEDENPTVLYSKAGQYDVTLKAISASGETVKTKEKYITVKKAPVPA | not soluble |
| MGSSHHHHHHSSGRENLYFQGMVSVTFEPVGKKVEDEPDTILEIARRNGVLIRSDCGGKGVCGKCKVVVVDYRGSLSDITDHERKHLIEEEISKGYRLACQARVEEGRATIFIPPESRLERRKVAGLTIEKEVELNPAVRKVYAEIQPPSIEDQLPDYDRLTRALGDFSLDLETLSEMPKLLREAEWRVTATFWNGRLIDLEKGDVSDRCYGVAVDVGSSKIICHLVDLKSGETIATGYSDNPQVAYGEDIVSRITYASKSAENRKRLQTVVVETVNQIIAELCNESGVDLRHVYEVMIVGNSVMHHLFFGIEPRFIGVSPFTPAVRRGVSFPAEDVGLRINRKGYVSSLPLVAGFVGADAVANIAITGIHKAEEISMVIDIGTNTEIVIGNREKLGVCSAPSGPAFEGAHITFGMKAISGAIDSVRIERDEVIYTTIDNAKAKGLCGTGLIDLIAELYRNGIINRNGKFVKDHSRIIVDGVPKFVVAKAEETEFGKPITVSEKDINELLMAKGAIKSGWMILSERLGIEPDKIERIYLAGSFGRHINVENAKVIGLLPDIPSEKITFAGDTAVGGAKMALKSVRVRDEMEDVVSRLNYVELSVEKNFYSVFVRAIPI | soluble |
| MSLKPVIGITGNRLVKGVDVFYGHRVTYTQQRYVDAIQKVGGFPIALPIDDPSTAVQAISLVDGLLLTGGQDITPQLYLEEPSQEIGAYFPPRDSYEIALVRAALDAGKPIFAICRGMQLVNVALGGTLYQDISQVETKALQHLQRVDEQLGSHTIDIEPTSELAKHHPNKKLVNSLHHQFIKKLAPSFKVTARTADGMIEAVEGDNLPSWYLGVQWHPELMFQTDPESEQLFQALVDESKKTMVKEGHHHHHH | soluble |
| MKDWLDEIHWNADGLVPAIAQDHETGRVLMMAWMNREALALTASENRAIYWSRSRGKLWRKGEESGHVQKLHELRLDCDADVVILMVEQVGGIACHTGRESCFYRVFENGAWKTVDPVLKDPDAIYEHAGHHHE | not soluble |
